# T1: glutathione S-transferase (GST)-CGI-58 (UniProt Q8WTS1 1-349)
# T1 sequence (looked up): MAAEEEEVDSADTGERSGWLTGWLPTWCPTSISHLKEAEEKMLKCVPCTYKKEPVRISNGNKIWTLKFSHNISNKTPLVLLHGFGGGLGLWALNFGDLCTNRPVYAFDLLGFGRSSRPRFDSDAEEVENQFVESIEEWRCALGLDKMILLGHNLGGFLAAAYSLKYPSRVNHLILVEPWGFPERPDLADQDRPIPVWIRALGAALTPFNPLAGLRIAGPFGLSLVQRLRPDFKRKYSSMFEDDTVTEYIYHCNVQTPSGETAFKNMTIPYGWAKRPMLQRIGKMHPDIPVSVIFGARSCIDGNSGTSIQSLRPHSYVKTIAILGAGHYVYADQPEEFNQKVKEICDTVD
# B1: recombinant PNPLA3(148M), deca-histidine and Flag fusion protein (enzyme, UniProt Q9NST1 1-481, looked up)
# chain: MYDAERGWSLSFAGCGFLGFYHVGATRCLSEHAPHLLRDARMLFGASAGALHCVGVLSGIPLEQTLQVLSDLVRKARSRNIGIFHPSFNLSKFLRQGLCKCLPANVHQLISGKIGISLTRVSDGENVLVSDFRSKDEVVDALVCSCFMPFYSGLIPPSFRGVRYVDGGVSDNVPFIDAKTTITVSPFYGEYDICPKVKSTNFLHVDITKLSLRLCTGNLYLLSRAFVPPDLKVLGEICLRGYLDAFRFLEEKGICNRPQPGLKSSSEGMDPEVAMPSWANMSLDSSPESAALAVRLEGDELLDHLRLSILPWDESILDTLSPRLATALSEEMKDKGGYMSKICNLLPIRIMSYVMLPCTLPVESAIAIVQRLVTWLPDMPDDVLWLQWVTSQVFTRVLMCLLPASRSQMPVSSQQASPCTPEQDWPCWTPCSPKGCPAETKAEATPRSILRSSLNFFLGNKVPAGAEGLSTFPSFSLEKSL
# Molecular target: T1, glutathione S-transferase (GST)-CGI-58
# Test: pull-down
binder,measurement,value
B1,molar ratio of PNPLA3 to CGI-58 in the precipitates,~0.14 mol PNPLA3 per mol CGI-58
